B1: CCNA1 341-351 peptide SLIAAAAFCLA (peptide)
peptide: SLIAAAAFCLA
notes: Synthetic peptide; also called the 11-mer
B2: CCNA1 227-235 peptide FLDRFLSCM (peptide)
peptide: FLDRFLSCM
notes: Synthetic peptide; also called the 9-mer

Target: T1, HLA A*0201 on T2 cells (human)
T1 construct: MHC class I on the surface of T2 cells; surface level read with FITC-labeled anti-HLA A,B,C (W6/32)
Test: HLA stabilization assay on T2 cells, flow cytometry with anti-HLA A,B,C (W6/32)
Protocol: T2 cells were pulsed with 100 μg/ml peptide in serum-free RPMI containing 1 μg/ml β-2-microglobulin (Sigma) for 16 h. Cells were then washed and incubated for 4 h in the presence of 5 μg/ml brefeldin A (Sigma), and then stained with FITC-labeled anti-HLA A, B, C (clone W6/32, BD Bioscience).

| binding result | Binder |
| --- | --- |
| binds | SLIAAAAFCL [10-mer SLIAAAAFCL (10-mer 1)] |
| binds | B1 |
| binds | B2 |

Reference: patent publication US20140322253A1 (FRED HUTCHINSON CANCER RESEARCH CENTER, published 2014)
